# Legend:
# 刺突S蛋白-鼠Fc融合蛋白 (S-mFc) = biological target: T1, 刺突S蛋白-鼠Fc融合蛋白 (S-mFc) (SARS-CoV-2; mouse, UniProt P0DTC2 14-1213); assay: flow cytometry, blocking of S-mFc binding to 293T-ACE2 cells
# T1 construct: domain: S蛋白全长区段
# [1] = biological target: T2, SARS-CoV-2 S1蛋白 (ACRO Biosystems) (SARS-CoV-2, UniProt P0DTC2 16-685); assay: competition ELISA, coated SARS-CoV-2 S1, HRP-hACE2-Fc as competitor
# T2 construct: domain: S1
# [2] = biological target: T3, SARS-CoV S1蛋白 (ACRO Biosystems) (SARS-CoV, UniProt P59594 14-667); assay: indirect ELISA, SARS-CoV S1 coated at 0.1 μg/mL
# T3 construct: domain: S1
Binder,IC50 (刺突S蛋白-鼠Fc融合蛋白 (S-mFc)) [µg/mL],EC50 [1] [µg/mL],binding result [2]
"人源化抗体hS1B-91-3 (humanized antibody) (antibody, V domains shown, also called 人源化单克隆抗体hS1B-91-3) VH: EVQLVQSGAEVKKPGSSVKVSCKASGYSFTDYWLHWVRQAPGQGLEWIGMLDPSDGETRLNQKFKDKATLTVDKSTTTAYMQLSSLRSEDTAVYYCARRHFGYDFDYWGQGTTVTVSS VL: DIVMTQSPSSLPVTPGQPASISCRSSKSLLHSNGNTYLYWFLQKPGKSPQLLIYRMSNLASGVPDRFSGSGSGTDFTLKISRVEAEDVGVYYCMQHLEYPLTFGGGTKVEIKR",0.00813,0.0738,–
"鼠源抗体S1B-91-3 (murine monoclonal antibody against SARS-CoV-2 S1) (antibody, V domains shown, also called 鼠源单抗S1B-91-3; 鼠抗S1B-91-3) VH: QVQLQQSGPQLVRPGASVKISCKASGYSFTDYWLHWVKQRPGQGLEWIGMLDPSDGETRLNQKFKDKATLTVDKSSTTAYMQLSSPTSEDSAVYYCARRHFGYDFDYWGQGTTLTVSS VL: DIVMTQAAPSVPVTPGESVSISCRSSKSLLHSNGNTYLYWFLQRPGQSPQLLIYRMSNLASGVPDRFSGSGSGTAFTLRISRVEAEDVGVYYCMQHLEYPLTFGGGTKLEVK",0.0137,–,no binding

# From patent CN114106159A (ANYUAN MEDICINE SCIENCE AND TECH SHANGHAI LIMITED COMPANY, dated 2022)
